Values of other authors as cited in publication PMC5023690.

What was measured:
[1] = molecular target: ONE-GC M836-C1110 (Rattus norvegicus) (UniProt P51839); assay: SPR; given as Ka
[2] = molecular target: ONE-GC M836-C1110 (Rattus norvegicus) (UniProt P51839); assay: SPR

Sequence of UniProt P51839 (P51839 836-1110): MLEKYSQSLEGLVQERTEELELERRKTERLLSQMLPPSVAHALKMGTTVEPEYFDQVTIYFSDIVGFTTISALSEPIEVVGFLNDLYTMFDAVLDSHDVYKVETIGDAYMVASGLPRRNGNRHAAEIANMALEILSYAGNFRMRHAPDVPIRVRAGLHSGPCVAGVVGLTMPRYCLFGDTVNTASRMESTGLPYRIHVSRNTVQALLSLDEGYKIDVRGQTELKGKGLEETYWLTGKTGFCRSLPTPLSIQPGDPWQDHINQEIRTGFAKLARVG

Kd [1]: 426 nM | Kd [2]: 430 nM
Substance: Frq (frequenin) (from UniProt P62166)
